# Measurements published in US20210283212A1 (RA PHARMACEUTICALS, published 2021).
# Starred links: 1 amine or outer side, 2 acyl side, 3 side chain; linkers in the order of their positions; H or OH if unused. Positions of bridges follow the written chain, without caps; N, C: chain ends. Non-standard residues stand in square brackets, D forms with d. Primed or numbered codes have the meaning given here. *: point of attachment. mXylyl(3) = bridging moiety between the two residues given in brackets; mXylyl″ = bridging moiety between the two marked residues; Trp(7-aza) = N[C@@H](Cc1c[nH]c2ncccc12)C(=O)O; Phe(3-Cl) = N[C@@H](Cc1cccc(Cl)c1)C(=O)O; Tiq1c(1S) = O=C(O)[C@H]1NCCc2ccccc21; pXylylene = c1cc(C[*:2])ccc1C[*:1]; dPhg = N[C@@H](C(=O)O)c1ccccc1; Phg = N[C@H](C(=O)O)c1ccccc1; Tle = CC(C)(C)[C@H](N)C(=O)O; NMeS = CN[C@@H](CO)C(=O)O; hCys = N[C@@H](CCS)C(=O)O; Heptanoyl = CCCCCCC(=O)*; Nle = CCCC[C@H](N)C(=O)O; Pra = C#CC[C@H](N)C(=O)O; Nva = CCC[C@H](N)C(=O)O; Sar = CNCC(=O)O
# B1: R3000 (peptide)
# peptide: Ac-[Nva]CYKNYH[Trp(7-aza)]EYP[Tle]Y-NH2
# SMILES: CCC[C@H](NC(C)=O)C(=O)N[C@@H](CS)C(=O)N[C@@H](Cc1ccc(O)cc1)C(=O)N[C@@H](CCCCN)C(=O)N[C@@H](CC(N)=O)C(=O)N[C@@H](Cc1ccc(O)cc1)C(=O)N[C@@H](Cc1c[nH]cn1)C(=O)N[C@@H](Cc1c[nH]c2ncccc12)C(=O)N[C@@H](CCC(=O)O)C(=O)N[C@@H](Cc1ccc(O)cc1)C(=O)N1CCC[C@H]1C(=O)N[C@H](C(=O)N[C@@H](Cc1ccc(O)cc1)C(N)=O)C(C)(C)C
# B2: R3101 (peptide)
# peptide: VCGTWEYSHGCV
# modifications: not fully specified; [mXylyl(2,10)]Ac-Nvl-C-Phg-T-azaTrp-E-Y-(N-Me)S-H-G-C-Nvl-NH2
# B3: R3104 (peptide)
# peptide: Ac-[Nva][hCys][Phg]T[Trp(7-aza)]EY[NMeS]HC[Nva]-NH2
# modifications: linker 2-10 via pXylylene
# SMILES: CCC[C@H](NC(=O)[C@@H]1CSCc2ccc(cc2)CSCC[C@H](NC(=O)[C@H](CCC)NC(C)=O)C(=O)N[C@@H](c2ccccc2)C(=O)N[C@@H]([C@@H](C)O)C(=O)N[C@@H](Cc2c[nH]c3ncccc23)C(=O)N[C@@H](CCC(=O)O)C(=O)N[C@@H](Cc2ccc(O)cc2)C(=O)N(C)[C@@H](CO)C(=O)N[C@@H](Cc2c[nH]cn2)C(=O)N1)C(N)=O
# B4: R3106 (peptide)
# peptide: Ac-[Nva]C[Phg]T[Trp(7-aza)]EY[NMeS]H[hCys][Nva]-NH2
# modifications: linker 2-10 via pXylylene
# SMILES: CCC[C@H](NC(=O)[C@@H]1CCSCc2ccc(cc2)CSC[C@H](NC(=O)[C@H](CCC)NC(C)=O)C(=O)N[C@@H](c2ccccc2)C(=O)N[C@@H]([C@@H](C)O)C(=O)N[C@@H](Cc2c[nH]c3ncccc23)C(=O)N[C@@H](CCC(=O)O)C(=O)N[C@@H](Cc2ccc(O)cc2)C(=O)N(C)[C@@H](CO)C(=O)N[C@@H](Cc2c[nH]cn2)C(=O)N1)C(N)=O
# B5: R3108 (peptide)
# peptide: Ac-[Nva][hCys][Phg]T[Trp(7-aza)]EY[NMeS]H[hCys][Nva]-NH2
# modifications: linker 2-10 via pXylylene
# SMILES: CCC[C@H](NC(=O)[C@@H]1CCSCc2ccc(cc2)CSCC[C@H](NC(=O)[C@H](CCC)NC(C)=O)C(=O)N[C@@H](c2ccccc2)C(=O)N[C@@H]([C@@H](C)O)C(=O)N[C@@H](Cc2c[nH]c3ncccc23)C(=O)N[C@@H](CCC(=O)O)C(=O)N[C@@H](Cc2ccc(O)cc2)C(=O)N(C)[C@@H](CO)C(=O)N[C@@H](Cc2c[nH]cn2)C(=O)N1)C(N)=O
# Biological target: human C5 protein (human, UniProt P01031 19-673; P01031 678-1676)
# Test: cell-based or functional assay
row,Binder,"Avg. IC50, human hemolysis assay"
1,B1,> 10000 nM
2,Ac-[Nva]CYE[Sar][Tle]Y[Trp(7-aza)]EC[Nva]P[Nva]-NH2 (linker 2-10 via mXylyl″) [R3009],> 100000 nM
3,B2,> 100000 nM
4,Ac-[Nva]C[Phg]T[Trp(7-aza)]EYPHC[Nva]-NH2 (linker 2-10 via mXylyl(3)) [R3102],978 nM
5,Ac-[Nva][hCys][Phg]T[Trp(7-aza)]EY[NMeS]HC[Nva]-NH2 (linker 2-10 via mXylyl(3)) [R3103],> 25000 nM
6,B3,> 2000 nM
7,Ac-[Nva]C[Phg]T[Trp(7-aza)]EY[NMeS]H[hCys][Nva]-NH2 (linker 2-10 via mXylyl(3)) [R3105],> 5000 nM
8,B4,> 5000 nM
9,Ac-[Nva][hCys][Phg]T[Trp(7-aza)]EY[NMeS]H[hCys][Nva]-NH2 (linker 2-10 via mXylyl(3)) [R3107],> 75000 nM
10,B5,> 75000 nM
11,Ac-[Nva]CYE[Sar][Tle]Y[Trp(7-aza)]E[Nva][Nva]PC-NH2 (linker 2-13 via mXylyl″) [R3010],> 100000 nM
12,Ac-[Nva]T[Phg]C[Trp(7-aza)]EY[NMeS]AC[Nva]-NH2 (linker 4-10 via mXylyl(3)) [R3111],> 5000 nM
13,Ac-[Nle]C[Phg]T[Trp(7-aza)]EY[NMeS]HC[Nva]-NH2 (linker 2-10 via mXylyl(3)) [R3112],> 5000 nM
14,Ac-Y[Nva]C[Phg]T[Trp(7-aza)]EY[NMeS]HC[Nva]-NH2 (linker 3-11 via mXylyl(3)) [R3113],> 5000 nM
15,Ac-[Nva]C[Phg]T[Trp(7-aza)]EY[NMeS]HC[Nva]P-NH2 (linker 2-10 via mXylyl″) [R3011],112 nM
16,Ac-[Nva]C[Tiq1c(1S)]T[Trp(7-aza)]EY[NMeS]HC[Nva]-NH2 (linker 2-10 via mXylyl(3)) [R3122],> 50000 nM
17,Ac-[Nva]CYNN[Tle]E[Trp(7-aza)]ECP[Phg][Tle]-NH2 (cysteine pairing not given here) [R3126],> 3000 nM
18,Ac-[Nva]CYNN[Tle]E[Trp(7-aza)]ECP[Phg][Tle]-NH2 (linker 2-10 via mXylyl(3)) [R3127],> 75000 nM
19,Ac-[Nva]C[Phg]T[Trp(7-aza)]EY[NMeS]HC[Nva]-NH2 (linker 2-10 via mXylyl″) [R3012],148 nM

row,Binder,"Avg. IC50, human hemolysis assay"
1,Ac-[Nva]C[Phg][dA][Trp(7-aza)]EY[NMeS]HC[Nva]-NH2 (linker 2-10 via mXylyl(3)) [R3133],> 75000 nM
2,Ac-[Nva]C[Phg]T[Trp(7-aza)]E[Phe(3-Cl)][NMeS]AC[Nva]-NH2 (linker 2-10 via mXylyl(3)) [R3134],> 5000 nM
3,Ac-[Nva]C[Phg]T[Trp(7-aza)]EY[NMeS][dA]C[Nva]-NH2 (linker 2-10 via mXylyl(3)) [R3135],> 25000 nM
4,Heptanoyl-[Nva]C[dPhg]T[Trp(7-aza)]EY[NMeS]AC[Nva]-NH2 (linker 2-10 via mXylyl(3)) [R3136],> 50000 nM
5,Heptanoyl-C[dPhg]T[Trp(7-aza)]EY[NMeS]AC[Nva]-NH2 (linker 1-9 via mXylyl(3)) [R3137],> 100000 nM
6,Ac-CVERFCD[Tle]YWEF-NH2 (linker 1-6 via mXylyl(3)) [R3138],87.2 nM
7,Ac-C[Tle]ERFCD[Tle]YWEF-NH2 (linker 1-6 via mXylyl(3)) [R3139],97.2 nM
8,Ac-CVERFCDVYWEYP-NH2 (linker 1-6 via mXylyl(3)) [R3140],17.9 nM
9,Ac-[Nva]C[Phg]T[Trp(7-aza)]EY[NMeS]HC-NH2 (linker 2-10 via mXylyl″) [R3013],344 nM
10,Ac-CVERFCDVYWEFP-NH2 (linker 1-6 via mXylyl(3)) [R3141],24.5 nM
11,Ac-CVERFCDVY[Trp(7-aza)]EYP-NH2 (linker 1-6 via mXylyl(3)) [R3142],44.6 nM
12,"CVERFCDGYWEYP ([mXylyl(1,6)]Ac-C-V-E-R-F-C-D-Tbg-Y-W-E-Y-P-NH2) [R3143]",18.6 nM
13,Ac-C[Tle]ERFCDVYWEF-NH2 (linker 1-6 via mXylyl(3)) [R3146],107 nM
14,Ac-CVERFCDVYWEF[Pra]-NH2 (linker 1-6 via mXylyl(3)) [R3147],138 nM
15,Ac-CAERFCD[Tle]YWEYP[Phg][Nva]-NH2 (linker 1-6 via mXylyl(3)) [R3148],8.5 nM
16,Ac-CAERFCD[Tle]YWEYP[dPhg][Nva]-NH2 (linker 1-6 via mXylyl(3)) [R3149],13.6 nM
17,Ac-CVARFCD[Tle]Y[Trp(7-aza)]EYP[Phg][Nva]-NH2 (linker 1-6 via mXylyl(3)) [R3150],32 nM
18,Ac-C[Phg]T[Trp(7-aza)]EY[NMeS]HC[Nva]P[Nva]-NH2 (linker 1-9 via mXylyl″) [R3014],1420 nM
19,Ac-CVARFCD[Tle]Y[Trp(7-aza)]EYP[dPhg][Nva]-NH2 (linker 1-6 via mXylyl(3)) [R3151],165 nM
